Reference: publication PMC314469, “Protein Interaction Networks by Proteome Peptide Scanning” (PLoS Biology, 2004)

T1: Boi1 SH3 (BOI1_YEAST), P38041
T1 chain: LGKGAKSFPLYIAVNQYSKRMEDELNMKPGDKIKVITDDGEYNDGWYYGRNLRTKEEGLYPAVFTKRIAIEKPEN

T2: Boi2 SH3 (BOI2_YEAST), P39969
T2 chain: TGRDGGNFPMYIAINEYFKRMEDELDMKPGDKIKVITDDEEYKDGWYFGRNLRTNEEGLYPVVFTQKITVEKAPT

T3: Rvs167 SH3 (RV167_YEAST), P39743
T3 chain: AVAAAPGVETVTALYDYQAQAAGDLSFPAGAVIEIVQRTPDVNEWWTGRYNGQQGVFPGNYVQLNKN

T4: Yfr024 SH3 (LSB3_YEAST), P43603
T4 chain: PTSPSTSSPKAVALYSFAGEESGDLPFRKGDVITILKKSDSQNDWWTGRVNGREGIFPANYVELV

T5: Yhr016c SH3 (YSC84_YEAST), P32793
T5 chain: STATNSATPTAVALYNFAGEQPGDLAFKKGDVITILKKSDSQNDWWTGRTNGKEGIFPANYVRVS


Assays:
Experiment in all cases: SPOT array
[1] = molecular target: T1, Boi1 SH3 (BOI1_YEAST), P38041
[2] = molecular target: T2, Boi2 SH3 (BOI2_YEAST), P39969
[3] = molecular target: T3, Rvs167 SH3 (RV167_YEAST), P39743
[4] = molecular target: T4, Yfr024 SH3 (LSB3_YEAST), P43603
[5] = molecular target: T5, Yhr016c SH3 (YSC84_YEAST), P32793

Row | normalised SPOT signal, Boehringer light units (BLU); mean over the file's lines of this peptide [1] | normalised SPOT signal, Boehringer light units (BLU); mean over the file's lines of this peptide [2] | normalised SPOT signal, Boehringer light units (BLU); mean over the file's lines of this peptide [3] | normalised SPOT signal, Boehringer light units (BLU); mean over the file's lines of this peptide [4] | normalised SPOT signal, Boehringer light units (BLU); mean over the file's lines of this peptide [5] | Binder
1 | 442 | 90 | 56.8 | 2650 | 128 | VTQPITPVKKRRSE [YNL230C 264-277]
2 | 24.5 | 16.6 | 37.1 | 46.1 | 65.5 | VQQPEDPLRVLGEY [YDR469W 143-156]
3 | 571 | 1180 | 580 | 13300 | 2250 | VYSPIQPRRRKDSS [YLR228C 72-85]
4 | 50.6 | 0 | 1860 | 4480 | 3610 | VVIPPVPSRYSDER [YDL117W 95-108]
5 | 174 | 23.2 | 60.9 | 814 | 268 | VSDPYVPTRNTFNY [YDL020C 142-155]
6 | 143 | 2670 | 870 | 6480 | 1040 | WNLPWSPFKITTIM [YDR211W 95-108]
7 | 164 | 19 | 1 | 861 | 136 | VTKPVVPKKTKKSA [YLR087C 319-332]
8 | 105 | 34.1 | 72.7 | 0 | 70.3 | VSIPFDPSKDTFDH [YEL031W 741-754]
9 | 94.3 | 34 | 22.6 | 533 | 168 | VVLPKFPDKSFVLD [YLR215C 239-252]
10 | 94.8 | 19.3 | 24.1 | 38.2 | 143 | VTLPTGPAKIIWEK [YHR007C 510-523]
11 | 122 | 20.4 | 17.7 | 1890 | 364 | VTTPLKPKRLAIPI [YJR083C 47-60]
12 | 59.7 | 50.3 | 55.9 | 70.5 | 173 | VVSPSHPFKQLQKI [YIL146C 146-159]
13 | 62.2 | 35.5 | 53.6 | 695 | 55.4 | VSTPPVPKKFQEIF [YDL107W 9-22]
14 | 0 | 69.6 | 50.5 | 3360 | 230 | VTVPKLPFKLAVNK [YBR040W 181-194]
15 | 85.4 | 227 | 168 | 5890 | 364 | WISPDTPLKFPLNE [YJL093C 636-649]
16 | 52.6 | 33.4 | 25.8 | 951 | 79.2 | VTLPISPSRASISF [YGL235W 70-83]
17 | 7340 | 2000 | 12900 | 47500 | 24500 | WKPPDLPIRLRKRP [YIL156W 502-515]
18 | 41.2 | 25.6 | 32.6 | 323 | 97.4 | VSPPFFPEKELNNR [YKR010C 454-467]
19 | 32.4 | 17.4 | 17.1 | 298 | 132 | VYVPINPPKELDQR [YJL060W 164-177]
20 | 30.3 | 47.1 | 48.9 | 1300 | 25.5 | WNDPSDPTKGFQYL [YMR207C 1538-1551]
21 | 530 | 126 | 202 | 2650 | 191 | VPSPIVPNKMRKQL [YKL052C 214-227]
22 | 53.1 | 55.9 | 52.6 | 4140 | 845 | VQTPHVPDRPPSQL [YPR104C 731-744]
